{"source": "patent US20200199559A1", "key": {"[1]": {"target": "Glucoamylase PE001: variant of the Penicillium oxalicum glucoamylase having a K79V substitution (Penicillium oxalicum)", "experiment": "cell-based or functional assay"}, "[2]": {"target": "wild type Penicillium oxalicum glucoamylase (Penicillium oxalicum)", "experiment": "cell-based or functional assay"}, "[3]": {"tested_on": "T1, wild type Penicillium oxalicum glucoamylase", "T1 sequence": "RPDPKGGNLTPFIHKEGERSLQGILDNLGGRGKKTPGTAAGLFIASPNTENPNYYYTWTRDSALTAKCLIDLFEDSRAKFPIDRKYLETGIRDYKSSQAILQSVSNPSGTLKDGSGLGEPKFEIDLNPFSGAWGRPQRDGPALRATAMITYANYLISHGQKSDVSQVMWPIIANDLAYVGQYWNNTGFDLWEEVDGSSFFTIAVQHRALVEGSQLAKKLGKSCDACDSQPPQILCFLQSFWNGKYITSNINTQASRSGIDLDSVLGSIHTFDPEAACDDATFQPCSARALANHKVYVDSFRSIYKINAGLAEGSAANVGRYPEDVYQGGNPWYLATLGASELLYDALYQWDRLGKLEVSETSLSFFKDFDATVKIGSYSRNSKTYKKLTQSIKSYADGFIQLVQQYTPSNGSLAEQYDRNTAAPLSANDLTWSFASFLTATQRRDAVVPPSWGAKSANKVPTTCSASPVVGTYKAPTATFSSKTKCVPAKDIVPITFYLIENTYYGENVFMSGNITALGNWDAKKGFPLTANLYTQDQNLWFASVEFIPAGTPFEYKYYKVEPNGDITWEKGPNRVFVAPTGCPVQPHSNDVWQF"}, "[4]": {"target": "T2, wild type Penicillium oxalicum glucoamylase", "T2 chain": "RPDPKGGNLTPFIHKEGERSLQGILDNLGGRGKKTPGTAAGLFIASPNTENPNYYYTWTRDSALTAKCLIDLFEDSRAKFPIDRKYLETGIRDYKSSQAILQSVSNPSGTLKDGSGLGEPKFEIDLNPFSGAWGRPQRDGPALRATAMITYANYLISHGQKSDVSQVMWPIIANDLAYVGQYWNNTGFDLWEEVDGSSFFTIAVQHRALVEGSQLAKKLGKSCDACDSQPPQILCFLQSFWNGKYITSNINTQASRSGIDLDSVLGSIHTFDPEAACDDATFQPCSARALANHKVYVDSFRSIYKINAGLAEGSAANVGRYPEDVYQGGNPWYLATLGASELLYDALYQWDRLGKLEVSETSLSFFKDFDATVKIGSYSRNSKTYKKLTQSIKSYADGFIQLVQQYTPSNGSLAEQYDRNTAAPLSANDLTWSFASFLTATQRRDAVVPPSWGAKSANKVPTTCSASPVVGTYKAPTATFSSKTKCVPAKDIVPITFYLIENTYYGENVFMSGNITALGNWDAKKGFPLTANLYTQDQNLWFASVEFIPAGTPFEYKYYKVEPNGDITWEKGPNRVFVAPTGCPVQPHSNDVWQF"}}, "note": "Where two headings read alike, the source gives them in different places.", "data": [{"molecule": "aspergillopepsin I (enzyme)", "values": [{"measurement": "intact glucoamylase (ca. 70 kDa), SDS-PAGE after protease treatment overnight at 4° C.", "setting": "[1]", "result": 100, "unit": "%"}, {"measurement": "intact glucoamylase (ca. 70 kDa), SDS-PAGE after protease treatment overnight at 32° C.", "setting": "[1]", "result": 100, "unit": "%"}, {"measurement": "intact glucoamylase (ca. 70 kDa), SDS-PAGE after protease treatment overnight at 4° C.", "setting": "[2]", "result": 100, "unit": "%"}, {"measurement": "intact glucoamylase (ca. 70 kDa), SDS-PAGE after protease treatment overnight at 32° C.", "setting": "[2]", "result": 90, "unit": "%"}]}, {"molecule": "aspergillopepsin I", "values": [{"measurement": "cleaved glucoamylase (ca. 60 kDa), SDS-PAGE after protease treatment overnight at 32° C.", "setting": "[3]", "result": 10, "unit": "%"}]}, {"molecule": "aorsin (protein) GLNVTNCDQLITPECIRALYKIPSARAAPHPNNSLGIFEEGDYYAQEDLDLFFKTFAKDIPQGTHPIPAFIDGAEAPVPVTKAGGESDLDFELAYPIVHPQSITLYQTDDANWASNTTGFLNTFLDALDGSYCTYCAYGECGNDPSLDPVYPDDAGYDGQLMCGVFKPTNVISVSYGEQENDLPANYQQRQCMEFLKLGLQGVSVLFASGDNGVAGPPGDGNSVNGCLNNGTVFSPAFPNSCPYITNVGATKVYPGYTVSQPESAVYDPDGLYSYASGGGFSNIYPIPDYQAEAVATYFKDHNPPYPYYEGAENLGKNGGLYNRLGRGYPDVAANGDNIAVFNGGEFGSSGGTSASTPIFASIINRIIDERLAVGKGPVGFINPVLYKNPSVLNDITNGTNPGCGTDGFSTAPGWDPATGLGTPNYPKMLKLWLDLP", "values": [{"measurement": "cleaved glucoamylase (ca. 60 kDa), SDS-PAGE after protease treatment overnight at 4° C.", "setting": "[4]", "result": 60, "unit": "%"}, {"measurement": "cleaved glucoamylase (ca. 60 kDa), SDS-PAGE after protease treatment overnight at 32° C.", "setting": "[4]", "result": 90, "unit": "%"}, {"measurement": "intact glucoamylase (ca. 70 kDa), SDS-PAGE after protease treatment overnight at 4° C.", "setting": "[1]", "result": 100, "unit": "%"}, {"measurement": "intact glucoamylase (ca. 70 kDa), SDS-PAGE after protease treatment overnight at 32° C.", "setting": "[1]", "result": 100, "unit": "%"}, {"measurement": "intact glucoamylase (ca. 70 kDa), SDS-PAGE after protease treatment overnight at 4° C.", "setting": "[2]", "result": 40, "unit": "%"}, {"measurement": "intact glucoamylase (ca. 70 kDa), SDS-PAGE after protease treatment overnight at 32° C.", "setting": "[2]", "result": 10, "unit": "%"}]}]}
